# Residue numbers refer to the chain shown, from its start. Values joined by “and” are separate entries in the source; they are usually repeats but may differ in a detail not shown here. Equal values may be shown once.
# T1: recombinant soluble human type 1 IL-1 receptor (extracellular domain, glycosylated) (human, UniProt P14778 21-333, N-glycosylated (from SF9 insect cells); biotinylated in the ELISA of Examples 2 and 4c)
# T1 construct: also called hIL-1R; rshIL-1R
# T1 sequence: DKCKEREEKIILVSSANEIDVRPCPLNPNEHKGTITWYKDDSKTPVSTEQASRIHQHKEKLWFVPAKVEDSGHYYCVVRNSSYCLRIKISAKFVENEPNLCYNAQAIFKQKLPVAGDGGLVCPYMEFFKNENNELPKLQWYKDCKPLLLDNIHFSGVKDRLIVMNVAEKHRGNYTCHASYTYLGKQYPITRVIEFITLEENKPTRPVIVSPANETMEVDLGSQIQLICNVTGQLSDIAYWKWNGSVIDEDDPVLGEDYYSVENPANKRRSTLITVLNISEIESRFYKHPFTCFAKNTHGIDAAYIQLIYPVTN
# T2: human interleukin-1 receptor on cells (MRC-5 human embryonic lung fibroblasts; human blood cells) (human, UniProt P14778 18-569)
# T2 sequence (looked up): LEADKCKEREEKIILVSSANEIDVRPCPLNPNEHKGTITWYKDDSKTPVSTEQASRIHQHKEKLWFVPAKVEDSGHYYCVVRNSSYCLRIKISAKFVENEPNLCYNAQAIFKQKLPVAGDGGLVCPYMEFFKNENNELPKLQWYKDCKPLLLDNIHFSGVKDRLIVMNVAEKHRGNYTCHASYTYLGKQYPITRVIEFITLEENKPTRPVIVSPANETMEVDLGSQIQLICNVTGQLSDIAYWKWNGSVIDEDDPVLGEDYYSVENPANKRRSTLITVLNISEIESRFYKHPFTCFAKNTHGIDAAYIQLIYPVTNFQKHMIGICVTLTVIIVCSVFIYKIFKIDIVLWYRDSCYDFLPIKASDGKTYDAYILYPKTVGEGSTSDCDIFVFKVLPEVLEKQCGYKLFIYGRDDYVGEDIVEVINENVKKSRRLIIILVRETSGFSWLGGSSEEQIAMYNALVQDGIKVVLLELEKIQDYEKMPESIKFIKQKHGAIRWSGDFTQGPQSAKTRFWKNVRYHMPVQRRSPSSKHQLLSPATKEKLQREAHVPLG
# B1: HUM2/2 (antibody, V domains shown)
# VH: QVQLQESGPGLVKPSETLSLTCTVSELSLTSNSITWIRQPPGKGLEWIGMIWSNGDTDYNSAFTSRVTISRDTSKNQFSLKLSSVTAADTAVYYCARYNYYFDYWGQGTLVTVSS
# VL: EIVLTQSPATLSLSPGERATLSCKASQNVDNRGVSYVHWYQQKPGQAPRLLIYKGSNLAFGVPARFSGSGSRTDFTLTISSLEPEDFATYYCQQSKGHPDTFGQGTKVEIK
# notes: Humanized variant of 2D8
# B2: DEI2/4 (antibody, V domains shown)
# VH: QLQLQESGPGLVKPSQTLSLTCTVSGLSLTSNSITWVRQAPGQGLEWMGMIWSNGDTDYSTSLKSRLTISKDTSKSQVVLTMTNMDPVDTATYYCARYNYYFDYWGQGTLVTVSS
# VL: B1 VL with E1D, R49K, R72G, E83Q, Q104A, V108L, I110L
# notes: also called combination of HURDIVHv2 and HURDIVKv4
# B3: DEI5/5 (antibody, V domains shown)
# VH: B2 VH with V37I, A40P, Q43K, L45P
# VL: B1 VL with E1D, L21I, R49K, R72G, E83Q, Q104A, V108L, I110L
# notes: also called combination of HURDIVHv5 and HURDIVKv5
# B4: DEI2/8 (antibody, V domains shown)
# VH: B2 VH
# VL: B1 VL with E1D, R49K, A64S, R72G, E83Q, Y91F, Q104A, V108L, I110L
# notes: also called combination of HURDIVHv2 and HURDIVKv8
# B5: DEI1/8 (antibody, V domains shown)
# VH: QLQLQESGPGLVKPSQTLSLTCTVSGLSLTSNSITWVRQAPGQGLEWMGMIWSNGDTDYNSAFTSRFTISRDNSKNTLYLQMNSLKTEDTAVYYCARYNYYFDYWGQGTLVTVSS
# VL: B1 VL with E1D, R49K, A64S, R72G, E83Q, Y91F, Q104A, V108L, I110L
# B6: DEI2/9 (antibody, V domains shown)
# VH: B2 VH
# VL: B1 VL with E1D, R49K, A64S, R72G, E83Q, Q104A, V108L, I110L
# notes: also called combination of HURDIVHv2 and HURDIVKv9
# B7: HUM2/3 (antibody, V domains shown)
# VH: B1 VH
# VL: B1 VL with L21I, A47Q, R49K
# notes: also called combination of HUR HuVH v2 and HUR HuVK v3
# B8: DEI4/5 (antibody, V domains shown)
# VH: B5 VH with V37I, A40P, Q43K, L45P
# VL: B1 VL with E1D, L21I, R49K, R72G, E83Q, Q104A, V108L, I110L
# notes: also called combination of HURDIVHv4 and HURDIVKv5
# B9: antibody 2D8 (rat monoclonal antibody against human interleukin-1 receptor, from hybridoma cell line MAK<h-IL-1RI>2D8, DSM ACC 2601) (antibody, V domains shown)
# VH: QLQLKESGPGLVQPSQTLSLTCTVSELSLTSNSITWIRQPPGRGLEWMGMIWSNGDTDYNSAFTSRLSISRDTSKSQVFLKMNSLQTEDSAMYFCARYNYYFDYWGQGVMVTVSS
# VL: DIVLTQAPVLAVSLEQRATISCKASQNVDNRGVSYVHWYQQKPRQQPKLLIYKGSNLAFGVPARFSGSGSRTDFTLTIDPVETDDFATYYCQQSKGHPDTFGAGTKLEL
# B10: chimeric 2D8 (IgG1) (antibody)
# heavy: not shown
# light: DIVLTQAPVLAVSLEQRATISCKASQNVDNRGVSYVHWYQQKPRQQPKLLIYKGSNLAFGVPARFSGSGSRTDFTLTIDPVETDDFATYYCQQSKGHPDTFGAGTKLELKRTVAAPSVFIFPPSDEQLKSGTASVVCLLNNFYPREAKVQWKVDNALQSGNSQESVTEQDSKDSTYSLSSTLTLSKADYEKHKVYACEVTHQGLSSPVTKSFNRGEC
# B11: chimeric 2D8 (IgG4) (antibody)
# heavy: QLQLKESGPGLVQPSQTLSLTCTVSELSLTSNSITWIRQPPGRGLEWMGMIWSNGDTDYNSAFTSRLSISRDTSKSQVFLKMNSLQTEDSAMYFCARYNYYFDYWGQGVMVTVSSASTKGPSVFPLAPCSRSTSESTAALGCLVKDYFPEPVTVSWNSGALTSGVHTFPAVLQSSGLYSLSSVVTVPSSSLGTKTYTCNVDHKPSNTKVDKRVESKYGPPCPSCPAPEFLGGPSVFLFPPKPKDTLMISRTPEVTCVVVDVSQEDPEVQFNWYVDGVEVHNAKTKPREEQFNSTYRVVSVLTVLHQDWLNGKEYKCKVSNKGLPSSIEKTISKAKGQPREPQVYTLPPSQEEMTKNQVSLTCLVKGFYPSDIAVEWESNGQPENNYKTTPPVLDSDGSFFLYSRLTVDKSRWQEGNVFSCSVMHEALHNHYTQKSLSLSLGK
# light: B10 light
# B12: DEI5/4 (antibody, V domains shown)
# VH: B2 VH with V37I, A40P, Q43K, L45P
# VL: B1 VL with E1D, R49K, R72G, E83Q, Q104A, V108L, I110L
# B13: DEI4/7 (antibody, V domains shown)
# VH: B5 VH with V37I, A40P, Q43K, L45P
# VL: B1 VL with E1D, R49K, R72G, E83Q, Y91F, Q104A, V108L, I110L
# B14: DEI5/7 (antibody, V domains shown)
# VH: B2 VH with V37I, A40P, Q43K, L45P
# VL: B1 VL with E1D, R49K, R72G, E83Q, Y91F, Q104A, V108L, I110L
# B15: DEI5/9 (antibody, V domains shown)
# VH: B2 VH with V37I, A40P, Q43K, L45P
# VL: B1 VL with E1D, R49K, A64S, R72G, E83Q, Q104A, V108L, I110L
# B16: DEI4/9 (antibody, V domains shown)
# VH: B5 VH with V37I, A40P, Q43K, L45P
# VL: B1 VL with E1D, R49K, A64S, R72G, E83Q, Q104A, V108L, I110L
# Target: T1, recombinant soluble human type 1 IL-1 …
# Test: ELISA on biotinylated human IL-1R on streptavidin plates
# Experimental: The relative immunactivity of the antibodies as compared to 2D8 antibody was determined by ELISA. A soluble biotinylated human IL-1R was coated at room temperature for one hour to 96-well-plates (precoated with streptavidin). After blocking with BSA the antibody was diluted and added to the wells and incubated at room temperature for two hours. The plates were washed three times and incubated with horse-radish-peroxidase (POD)-conjugated rabbit-anti-rat-IgG at room temperature for one hour. After further washing the amount of bound antibody was determined by addition of TM-Blue® ([…]) and measurement of the absorbance at 370 nm.
Binder,"ELISA (absorbance at 370 nm in relation to 2D8), 1st experiment","ELISA (absorbance at 370 nm in relation to 2D8), 2nd experiment","ELISA (absorbance at 370 nm in relation to 2D8), mean"
B1,1.3 relative to 2D8,1.6 relative to 2D8,1.4 relative to 2D8
B2,1.5 relative to 2D8,1.8 relative to 2D8,1.7 relative to 2D8
B3,3.1 relative to 2D8,3.4 relative to 2D8,3.3 relative to 2D8
B4,1.5 relative to 2D8,2.6 relative to 2D8,2.1 relative to 2D8
B5,2.1 relative to 2D8,2.2 relative to 2D8,2.2 relative to 2D8
B6,1.4 relative to 2D8,1.8 relative to 2D8,1.6 relative to 2D8
B7,2.2 relative to 2D8,2.1 relative to 2D8,2.2 relative to 2D8
B8,3 relative to 2D8,2.2 relative to 2D8,2.6 relative to 2D8

# Target: T2, human interleukin-1 receptor on cells …
# Test: cell-based or functional assay
row,Binder,IC 50 for the inhibition of IL-8 secretion (h-IL1β stimulated MRC-5 cells)
1,B9,7.2 pM and 1.08 ng/ml
2,B10,4.7 pM and 0.71 ng/ml
3,B11,5.1 pM and 0.77 ng/ml

# Target: T2, human interleukin-1 receptor on cells …
# Test: cell-based or functional assay
# Remark: another data set of the same source
Binder,"Bioassay (IC50 in relation to 2D8), Mean","Bioassay (IC50 in relation to 2D8), 1st experiment","Bioassay (IC50 in relation to 2D8), 2nd experiment"
B9,1 relative to 2D8,,
B12,2.5 relative to 2D8,3.1 relative to 2D8,1.9 relative to 2D8
B13,3.5 relative to 2D8,3.4 relative to 2D8,3.5 relative to 2D8
B1,1 relative to 2D8,0.9 relative to 2D8,1 relative to 2D8
B2,2.3 relative to 2D8,2.5 relative to 2D8,2 relative to 2D8
B14,2.3 relative to 2D8,3.4 relative to 2D8,1.2 relative to 2D8
B3,4.6 relative to 2D8,5.2 relative to 2D8,3.9 relative to 2D8
B15,2.2 relative to 2D8,1.6 relative to 2D8,2.8 relative to 2D8
B4,2.4 relative to 2D8,3.3 relative to 2D8,1.4 relative to 2D8
B16,4.7 relative to 2D8,5.2 relative to 2D8,4.1 relative to 2D8
B5,2 relative to 2D8,3.2 relative to 2D8,0.7 relative to 2D8
B6,2.8 relative to 2D8,2.7 relative to 2D8,2.8 relative to 2D8
B7,1.2 relative to 2D8,0.8 relative to 2D8,1.5 relative to 2D8
B8,3 relative to 2D8,1.5 relative to 2D8,4.5 relative to 2D8
